Usually t½ stands for the time in which the quantity being followed falls by half. The term Kd denotes the constant that tells how readily two partners part at equilibrium. As usually defined, the koff is a measure of how fast the partners let go of each other.

Four molecules from patent publication US20160362487A1 (Regeneron, published 2016) can be followed below.

Test [1] concerns the target T1, pre-formed complex of hIL-33 and captured hST2-MMH (human, UniProt O95760 112-270).
T1 construct: Ligand-receptor complex on the sensor: hST2-MMH captured by anti-myc mAb and saturated with 100 nM hIL-33; also called hIL-33 pre-complexed with hST2-MMH
Briefly: SPR Biacore T-200, 25C. As to the method:
The ability of anti-IL-33 antibodies to bind to a pre-formed complex of IL-33 with ST2 was tested using Biacore T-200 instrument equipped with a real-time surface plasmon resonance biosensor. The experiment was performed at 25° C. with a running buffer composed of 0.01M HEPES pH 7.4, 0.15M NaCl, 3 mM EDTA, and 0.05% v/v Surfactant Tween-20 (HBS-ET). […] The captured hST2-MMH surface was then saturated by injecting 100 nM of human IL-33 (hIL-33; R&D Systems, #3625-IL-010/CF) for 3 minutes followed by a 3 minute injection of a 100 nM solution of the anti-IL-33 monoclonal antibody. The real-time binding response was monitored during the entire course of the experiment, and the observed binding response at 3 minutes after injection of anti-IL-33 antibody to the pre-formed complex of hIL-33 and captured hST2-MMH was recorded and tabulated and shown in Table 7. No non-specific binding of anti-IL-33 monoclonal antibody to the anti-myc tag capture surface was observed.
(In SPR one partner is held on a chip, and binding of the other changes the refractive index at the surface.)

In test [2] the target is T2, human IL-33 (R&D Systems, #3625-IL-010/CF) (human, UniProt O95760 112-270).
T2 sequence (looked up): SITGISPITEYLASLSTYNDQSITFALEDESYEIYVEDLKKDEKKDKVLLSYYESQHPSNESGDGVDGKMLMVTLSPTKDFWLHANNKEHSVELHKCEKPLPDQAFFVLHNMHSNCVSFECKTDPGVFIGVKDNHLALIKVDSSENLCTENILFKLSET
Briefly: cell-based or functional assay.

For test [3], the target named is T3, cynomolgus monkey IL-33 expressed with a C-terminal hexahistidine tag (cynomolgus monkey).
T3 construct: also called MfIL-33-6His; Mf-IL-33-6His
T3 chain: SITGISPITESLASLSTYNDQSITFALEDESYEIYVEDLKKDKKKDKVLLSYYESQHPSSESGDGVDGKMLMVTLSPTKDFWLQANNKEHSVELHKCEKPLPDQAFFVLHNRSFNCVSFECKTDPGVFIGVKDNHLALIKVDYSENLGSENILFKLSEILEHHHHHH
Briefly: BLI; captured MfIL-33-6His, mAb-1 step with Isotype control. As to the method:
Binding competition between a panel of different anti-IL-33 monoclonal antibodies was determined using a real time, label-free bio-layer interferometry assay on an Octet® HTX biosensor (ForteBio, A Division of Pall Life Sciences). The experiment was performed at 25° C. using a buffer of 0.01M HEPES pH7.4, 0.15M NaCl, 3 mM EDTA, 0.05% v/v Surfactant Tween-20, and 0.1 mg/ml BSA (HBS-ET kinetics buffer) with the plate shaking at a speed of 1000 rpm. […] The antigen-captured biosensors were then saturated with a first anti-IL-33 monoclonal antibody (subsequently referred to as mAb-1) by immersion into wells containing 50 μg/mL solution of mAb-1 for 5 minutes. The biosensors were then dipped into wells containing a 50 μg/mL solution of a second anti-IL-33 monoclonal antibody (subsequently referred to as mAb-2) for 4 minutes. The biosensors were washed in HBS-ET kinetics buffer in between every step of the experiment. The real-time binding response was monitored during the experiment, and the maximum binding response for each binding step was recorded. The response of mAb-2 binding to MfIL-33-6His pre-complexed with mAb-1 was measured, and competitive/non-competitive behavior of different anti-IL-33 monoclonal antibodies with respect to each other was determined.

For test [4], the target named is T2, human IL-33 (R&D Systems, …). Briefly: cell-based or functional assay. The source holds these as a separate data set.
For test [5] the target is unchanged. Briefly: SPR 25C pH7.4, mAb captured; lower limit, kd fixed. As to the method:
(§1) Equilibrium dissociation constants (KD values) for IL-33 binding to purified anti-IL-33 monoclonal antibodies were determined using a real-time surface plasmon resonance biosensor using a Biacore 4000 instrument. The Biacore sensor surface was first derivatized by amine coupling with either a polyclonal rabbit anti-mouse antibody (GE, # BR-1008-38) or with a monoclonal mouse anti-human Fc antibody (GE, # BR-1008-39) to capture anti-IL-33 monoclonal antibodies expressed with mouse or with human IgG4 constant regions, respectively. All Biacore binding studies were performed in 0.01M ADA pH 7.4, 0.15M NaCl, 3 mM EDTA, and 0.05% v/v Surfactant Tween-20 (ABS-ET running buffer). […] Association of either hIL-33 or MfIL-33-6His to the captured monoclonal antibody was monitored for 4 minutes and their dissociation in ABS-ET running buffer was monitored for 10 minutes. […] To achieve this, association of either hIL-33 or MfIL-33-6His to the captured monoclonal antibody was monitored for 4 minutes in ABS-ET running buffer. Following a 30 second dissociation of either hIL-33 or MfIL-33-6His in ABS-ET running buffer, ABS-ET pH6 buffer was injected for 3 minutes, and the analyte dissociation under the low-pH conditions was measured. […] Binding dissociation equilibrium constants (KD) and dissociative half-lives (t½) were calculated from the kinetic rate constants as: […]

For test [6] the target is unchanged. Briefly: SPR 25C pH7.4, mAb captured; upper limit, kd fixed. As to the method:
as §1

For test [7] the target is unchanged. Briefly: SPR 25C pH7.4, mAb captured; no dissociation seen, kd fixed. As to the method:
as §1

Numbering of substitutions follows the chain as printed. Names and notes keep the numbering of the source.

B1: H4H9662P (antibody, V domains shown)
VH: EVQLVESGGGLVQPGGSLRLSCAASGFTFSSYALTWVRQAPGKGLEWVSFISGSGGRPFYADSVKGRFTISRDNSKNMLYLQMNSLRAEDTAIYYCAKSLYTTSWYGGFDSWGQGTLVTVSS
VL: DIQMTQSPSSVSASVGDRVTITCRASQGVVSWLAWYQQKPGKAPKLLIYAASSLQSGVPSRFSGSGSGTDFTLTISSLQPEDFATYYCQQSNSFPFTLGPGTKVDIK
notes: Human IgG4 Fc (H4H)
With B1, in test [1], the binding result is reported as “no binding (tested: 100 nM)”. Also, in test [2], the “IC50, blocking of IFN-γ release from human PBMC induced by 260 pM hIL-33, donor #603486” value (“IC50, blocking of IFN-γ release … donor #603486” below) turned out to be 9.64e-10 M and the “IC50, blocking of IFN-γ release from human PBMC induced by 260 pM hIL-33, donor #603487” value (shortened to “IC50, blocking of IFN-γ release … donor #603487”) came out at 3.02e-09 M. In addition, the “mAb-2 Binding to the Pre-complex of mAb-1 & MfIL-33-6xHis” value (“mAb-2 Binding to the Pre-complex” for short) in test [3] was found to be 0.22 nm.

B2: H4H9665P (antibody, human IgG4, V domains shown)
VH: EVQLVESGGGLVQPGGSLRLSCAASGFTFSNYAMTWVRQAPGKGLEWVSTISGSGDNTYYADSVQGRFTISRGHSKNTLYLQMNSLRAEDTAVYYCAKPTYSRSWYGAFDFWGQGTMVTVSS
VL: B1 VL with V29I, V30S, K45Q, S53R, S63W, S91A, S93N, L98F
notes: Human IgG4 Fc (H4H)
B2: the binding result in test [1] is given as “no binding (tested: 100 nM)”. For the same molecule, in test [2], the “IC50, blocking of IFN-γ release … donor #603486” value came out at 1.04e-08 M and the “IC50, blocking of IFN-γ release … donor #603487” value is 2.34e-08 M. For the same molecule, in test [3], the “mAb-2 Binding to the Pre-complex” value came to 0.3 nm.

B3: H4H9675P (antibody, human IgG4, V domains shown)
VH: EVQLVESGGNLEQPGGSLRLSCTASGFTFSRSAMNWVRRAPGKGLEWVSGISGSGGRTYYADSVKGRFTISRDNSKNTLYLQMNSLSAEDTAAYYCAKDSYTTSWYGGMDVWGHGTTVTVSS
VL: DIQMTQSPSSVSASVGDRVTITCRASQGIFSWLAWYQQKPGKAPKLLIYAASSLQSGVPSRFSGSGSGTDFTLTISSLQPEDFAIYYCQQANSVPITFGQGTRLEIK
notes: Human IgG4 Fc (H4H)
Regarding B3, in test [4], the “IC50, blocking of human basophil degranulation induced by 100 pM human IL-33, donor 655687” value came to 1.33e-10 M and the “IC50, blocking of human basophil degranulation induced by 100 pM human IL-33, donor 655688” value amounted to 9.71e-11 M. Also, in test [2], the “IC50, blocking of IFN-γ release … donor #603486” value came to 1.75e-10 M and the “IC50, blocking of IFN-γ release … donor #603487” value came out at 4.71e-10 M. Moreover, the “mAb-2 Binding to the Pre-complex” value in test [3] was determined as 0.26 nm.

B4: H1M9566N (antibody, mouse IgG1, V domains shown)
VH: EVQLLESGGDLVQPGGSLRLSCAASGFTFSSYAMSWVRQAPGKGLEWVSVISGSGSSTDYADSVKGRFTISRDNSRDTLHLQMNSLRAEDTAVYYCAKTFYYFYGLDVWGQGTTVTVSS
VL: DIQMTQSPSSLSASLRDRVTITCRASQGISNYLAWYQQKPGKVPKVLIYAASTLQSGVPSRFSGSGSGTVFTLTISSLQTEDVATYYCQKYSSAPFTFGPGTKVDIK
notes: Human variable domains, mouse IgG1 Fc (H1M)
For the molecule B4, the t½ in test [5] was at least 19.2 h. The Kd in test [6] is at most 0.0788 nM. In test [7], this molecule registered a koff of at most 1e-05 s⁻¹. For the same molecule, the “mAb-2 Binding to the Pre-complex” value in test [3] stood at 0.38 nm.
